The target of one assay is T1, α1AAR-kOR (Homo sapiens, UniProt P35348, DEL205-275/INS204TLMILRLKSVRLLSGSREKDRNLRRITRLVL/M115W/N13Q/N22Q/N7Q/S113R).
T1 construct: C-terminus truncated human α1AAR (residues 1–370, full length: 466); hemagglutinin signal peptide (N); FLAG (N); 8×His (C); made in house; host or cells: Sf9 insect cells (membranes)
Briefly: [3H]prazosin radioligand binding, Sf9 membrane. As to conditions: for [3H]prazosin binding: listed as Tam.

Assay [1] has as its target T2, C-terminus truncated human α1AAR (residues 1-370; N7Q, N13Q, N22Q) (Homo sapiens, UniProt P35348, N7Q | N13Q | N22Q).
T2 construct: α1A-adrenergic receptor, human, residues 1-370 (full length: 466); also called α1A-adrenergic receptor; source: Sf9 insect cells (baculovirus); not shown: FLAG, N-terminal, kept
In words: radioligand binding; [3H]prazosin competition binding with Nb29 as competitor, purified α1AAR bound to M1-Flag affinity resin; 20 mM HEPES pH 7.5, 100 mM NaCl, 0.01% MNG, 0.001% CHS, 2 mM CaCl2; 1 h at room temperature. As to conditions: both partners purified.

The target of assay [2] is T2, C-terminus truncated human α1AAR …. In words: radioligand binding; [3H]prazosin competition binding with Nb29 as competitor, α1AAR in Sf9 membranes; 20 mM Tris-HCl pH 7.5, 100 mM NaCl; 1 h at room temperature. As to conditions: one partner purified.
The target of another assay is T3, α1AAR (Homo sapiens, UniProt P35348, N13Q/N22Q/N7Q).
T3 construct: C-terminus truncated human α1AAR (residues 1–370, full length: 466); hemagglutinin signal peptide (N); 8×His (C); made in house; host or cells: Sf9 insect cells (baculovirus)
T3 sequence (P35348 1-370 N7Q/N13Q/N22Q): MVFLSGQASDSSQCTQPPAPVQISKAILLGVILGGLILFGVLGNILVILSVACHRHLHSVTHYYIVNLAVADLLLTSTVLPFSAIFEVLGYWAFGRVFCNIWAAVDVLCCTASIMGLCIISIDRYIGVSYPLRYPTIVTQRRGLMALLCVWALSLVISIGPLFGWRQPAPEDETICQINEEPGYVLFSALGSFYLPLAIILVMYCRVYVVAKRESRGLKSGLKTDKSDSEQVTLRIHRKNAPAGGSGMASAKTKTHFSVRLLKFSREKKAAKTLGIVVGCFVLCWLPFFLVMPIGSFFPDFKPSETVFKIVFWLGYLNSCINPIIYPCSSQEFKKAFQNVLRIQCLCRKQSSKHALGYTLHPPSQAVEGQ
Briefly: On-yeast titration of Nb29 for α1AAR, flow cytometry. Type of assay: binding. As for the experimental part: Yeast cells were analyzed by Accuri C6 and the ratio of double-positive yeast cells among anti-HA positive cells was calculated.

[3] abbreviates: 1 h, read-out: [3H]prazosin binding.

Several values for one entry are separate records, joined by “and”; a condition that tells them apart may be missing. Equal entries are not always repeated.

T1 sequence (P35348 with tags, fused parts or gaps with the stated changes limits assumed): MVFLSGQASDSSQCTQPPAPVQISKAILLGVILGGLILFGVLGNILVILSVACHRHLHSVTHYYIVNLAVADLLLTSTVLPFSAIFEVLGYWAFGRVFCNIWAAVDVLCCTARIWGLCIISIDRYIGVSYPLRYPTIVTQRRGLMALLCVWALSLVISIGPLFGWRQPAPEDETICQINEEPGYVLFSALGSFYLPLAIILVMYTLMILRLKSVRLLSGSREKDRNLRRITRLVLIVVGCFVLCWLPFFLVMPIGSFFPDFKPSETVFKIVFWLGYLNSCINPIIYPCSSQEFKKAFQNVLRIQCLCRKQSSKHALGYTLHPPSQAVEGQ

For the molecule `Cc1cc(C(C)(C)C)c(O)c(C)c1CC1=NCCN1` [Oxymetazoline, oxymetazoline], on α1AAR-kOR (setting [3]), the remaining activity at 0.001 µM stood at 89.3%, the remaining activity at 0.01 µM was determined as 83.5% and the remaining activity at 1 µM amounted to 13.3%.

Regarding `CCOc1ccccc1OCCN[C@H](C)Cc1ccc(OC)c(S(N)(=O)=O)c1` [Tamsulosin, tamsulosin], the “[3H]prazosin binding” value was 0.3% and 1.4% and 0.5% on α1AAR-kOR (Tam Log[M] -4, + 5 μM Nb6); 1.611% and 3.516% and 2.93% on α1AAR-kOR (Tam Log[M] -4); 2.5% and 2.1% and 1.4% on α1AAR-kOR (Tam Log[M] -5, + 5 μM Nb6); 3.223% and 3.809% and 3.369% on α1AAR-kOR (Tam Log[M] -5); 3.3% and 4.3% and 2.7% at α1AAR-kOR (Tam Log[M] -6, + 5 μM Nb6); 4.541% and 3.809% and 4.395% on α1AAR-kOR (Tam Log[M] -6). Moreover, the “[3H]prazosin binding” value at α1AAR-kOR (Tam Log[M] -7, + 5 μM Nb6) is 48.154% and 49.4541% and 47.454%; on α1AAR-kOR (Tam Log[M] -7), 39.4775% and 27.2705% and 36.2061%; at α1AAR-kOR (Tam Log[M] -8, + 5 μM Nb6), 86.9072% and 94.5245% and 104.442%; on α1AAR-kOR (Tam Log[M] -8) it was 82.3975% and 81.5186% and 80.0537%; at α1AAR-kOR (Tam Log[M] -9, + 5 μM Nb6), 108.742% and 93.5245% and 98.1248%; at α1AAR-kOR (Tam Log[M] -9) it was 91.626% and 91.1865%. For the same molecule, the “[3H]prazosin binding” value is 97.6581% and 106.126% and 95.8247% on α1AAR-kOR (Tam Log[M] -10, + 5 μM Nb6); 84.8877% and 109.009% and 95.459% on α1AAR-kOR (Tam Log[M] -10); 98.7416% and 100.042% and 78.5899% at α1AAR-kOR (Tam Log[M] -11, + 5 μM Nb6); 106.152% and 96.4844% and 97.3633% on α1AAR-kOR (Tam Log[M] -11).

B1: Nb29 (purified nanobody) (VHH)
VHH: QVQLQESGGGLVQAGGSLRLSCAASGNISAHWKMGWYRQAPGKEREFVAGIGYANTNYADSVKGRFTISRDNAKNTVYLQMNSLKPEDTAVYYCAAYSYYRDHSYWGQGTQVTVSS
notes: source: E. coli BL21(DE3), periplasmic (pET26b), purified (Ni-NTA, size-exclusion chromatography)
Take B1: the inhibition constant (Ki) worked out at 6.4 µM in assay [1] and 41 µM in assay [2].

B2: Nb29: synthetic nanobody (single domain antibody) that binds the extracellular vestibule of α1AAR, preferentially oxymetazoline-bound (antibody, V domains shown)
VH: B1 VHH
Take B2: the “Nb29-expressing yeast cells bound to α1AAR” value with α1AAR (500 μM Noradrenaline, α1AAR 4 nM) was 4.281% and 5.07% and 1.08%; with α1AAR (500 μM Noradrenaline, α1AAR 16 nM) it was 4.4164% and 6.158% and 1.447%; with α1AAR (500 μM Noradrenaline, α1AAR 64 nM), 6.534% and 6.061% and 1.603%; with α1AAR (500 μM Oxymetazoline, α1AAR 64 nM), 56.0554% and 29.8113% and 58.3201%; in the assay with α1AAR (500 μM Oxymetazoline, α1AAR 256 nM) it was 56.0831% and 53.0792% and 88.1579%; with α1AAR (500 μM Phentolamine, α1AAR 4 nM), 4.281% and 2.134% and 0.9772%. Besides, the “Nb29-expressing yeast cells bound to α1AAR” value is 4.4164% and 5.525% and 0.626% with α1AAR (500 μM Phentolamine, α1AAR 16 nM); 6.534% and 6.745% and 1.138% in the assay with α1AAR (500 μM Phentolamine, α1AAR 64 nM); 1.7094% and 4.412% and 4.11% with α1AAR (500 μM Tam, α1AAR 4 nM); 2.954% and 4.451% and 4.373% with α1AAR (500 μM Tam, α1AAR 16 nM); 5.7377% and 5.491% and 6.25% in the assay with α1AAR (500 μM Tam, α1AAR 64 nM); 3.361% and 11.8841% and 12.7329% in the assay with α1AAR (500 μM Tam, α1AAR 256 nM). For the same molecule, the “Nb29-expressing yeast cells bound to α1AAR” value with α1AAR (Apo, α1AAR 4 nM) is 4.848% and 6.304% and 2.077%; with α1AAR (Apo, α1AAR 16 nM), 4.142% and 4.886% and 1.136%. For the same molecule, the Bmax is recorded as 35.8 ± 25.7% in the assay with α1AAR (Apo α1AAR); 10.9 ± 3.4% in the assay with α1AAR (α1AAR + 500 μM noradrenaline); 75.5 ± 13.8% in the assay with α1AAR (α1AAR + 500 μM oxymetazoline); 24.8 ± 4.0% with α1AAR (α1AAR + 500 μM phentolamine); 8.90 ± 1.8% with α1AAR (α1AAR + 500 μM tamsulosin). In the assay with α1AAR (Apo α1AAR), the dissociation constant Kd came out at 0.209 ± 0.288 µM.

B3: Nb6: nanobody that engages the ICL3 of the inactive-state κ-opioid receptor (antibody, V domains shown)
VH: QVQLQESGGGLVQAGESLRLSCAASGTIFRLYDMGWYRRVSGNQRELVASITSGGSTKYGDSVKGRFTISRDNAKNTVYLQMSSLKPEDTAVYYCNAEYRTGIWEELLDGWGQGTQVTVSS
Take B3: in the assay with α1AAR-kOR, the “effect on [3H]prazosin binding” value was “enhancement”. In addition, the “Normalized [3H]prazosin-binding” value in the assay with α1AAR-kOR (with 5 μM Nb6) is 182.818% and 184.467% and 175.395%.
